Measured values taken from IntAct's records for PubMed 16424905.

B1: AN1-type zinc finger protein 5 (Homo sapiens), O76080 (parent)
chain: MAQETNQTPGPMLCSTGCGFYGNPRTNGMCSVCYKEHLQRQQNSGRMSPMGTASGSNSPTSDSASVQRADTSLNNCEGAAGSTSEKSRNVPVAALPVTQQMTEMSISREDKITTPKTEVSEPVVTQPSPSVSQPSTSQSEEKAPELPKPKKNRCFMCRKKVGLTGFDCRCGNLFCGLHRYSDKHNCPYDYKAEAAAKIRKENPVVVAEKIQRI

Variants of: B1
Conditions: with ubc_human UBC

Effect of a mutation on the interaction, disrupting interaction:
MAQETNQTPGPMLCSTGCGFYGNPRTNGMASVCYKEHLQRQQNSGRMSPMGTASGSNSPTSDSASVQRADTSLNNCEGAAGSTSEKSRNVPVAALPVTQQMTEMSISREDKITTPKTEVSEPVVTQPSPSVSQPSTSQSEEKAPELPKPKKNRCFMCRKKVGLTGFDCRCGNLFCGLHRYSDKHNCPYDYKAEAAAKIRKENPVVVAEKIQRI [C30A]
MAQETNQTPGPMLCSTGCGFYGNPRTNGMCSVAYKEHLQRQQNSGRMSPMGTASGSNSPTSDSASVQRADTSLNNCEGAAGSTSEKSRNVPVAALPVTQQMTEMSISREDKITTPKTEVSEPVVTQPSPSVSQPSTSQSEEKAPELPKPKKNRCFMCRKKVGLTGFDCRCGNLFCGLHRYSDKHNCPYDYKAEAAAKIRKENPVVVAEKIQRI [C33A]

Variants of: B1
Conditions: with psmd6_human PSMD6, Q15008
psmd6_human PSMD6, Q15008, sequence (Q15008 whole entry): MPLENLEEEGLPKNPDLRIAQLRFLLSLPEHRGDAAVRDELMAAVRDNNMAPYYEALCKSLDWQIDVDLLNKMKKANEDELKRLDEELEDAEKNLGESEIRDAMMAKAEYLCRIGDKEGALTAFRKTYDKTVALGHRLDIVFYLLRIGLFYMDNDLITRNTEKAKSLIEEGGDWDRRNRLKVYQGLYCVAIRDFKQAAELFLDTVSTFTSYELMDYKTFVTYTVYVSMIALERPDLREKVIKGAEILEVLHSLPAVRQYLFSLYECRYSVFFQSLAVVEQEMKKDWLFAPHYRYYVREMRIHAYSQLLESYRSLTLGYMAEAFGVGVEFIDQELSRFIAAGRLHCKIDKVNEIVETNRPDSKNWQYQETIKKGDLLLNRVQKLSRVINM

Effect of a mutation on the interaction, disrupting interaction:
MAQETNQTPGPMLCSTGCGFYGNPRTNGMASVCYKEHLQRQQNSGRMSPMGTASGSNSPTSDSASVQRADTSLNNCEGAAGSTSEKSRNVPVAALPVTQQMTEMSISREDKITTPKTEVSEPVVTQPSPSVSQPSTSQSEEKAPELPKPKKNRCFMCRKKVGLTGFDCRCGNLFCGLHRYSDKHNCPYDYKAEAAAKIRKENPVVVAEKIQRI [C30A]
MAQETNQTPGPMLCSTGCGFYGNPRTNGMCSVCYKEHLQRQQNSGRMSPMGTASGSNSPTSDSASVQRADTSLNNCEGAAGSTSEKSRNVPVAALPVTQQMTEMSISREDKITTPKTEVSEPVVTQPSPSVSQPSTSQSEEKAPELPKPKKNRCFMCRKKVGLTGFDCRCGNLFAGLHRYSDKHNCPYDYKAEAAAKIRKENPVVVAEKIQRI [C175A]
MAQETNQTPGPMLCSTGCGFYGNPRTNGMCSVCYKEHLQRQQNSGRMSPMGTASGSNSPTSDSASVQRADTSLNNCEGAAGSTSEKSRNVPVAALPVTQQMTEMSISREDKITTPKTEVSEPVVTQPSPSVSQPSTSQSEEKAPELPKPKKNRCFMCRKKVGLTGFDCRAGNLFCGLHRYSDKHNCPYDYKAEAAAKIRKENPVVVAEKIQRI [C170A]
MAQETNQTPGPMLCSTGCGFYGNPRTNGMCSVAYKEHLQRQQNSGRMSPMGTASGSNSPTSDSASVQRADTSLNNCEGAAGSTSEKSRNVPVAALPVTQQMTEMSISREDKITTPKTEVSEPVVTQPSPSVSQPSTSQSEEKAPELPKPKKNRCFMCRKKVGLTGFDCRCGNLFCGLHRYSDKHNCPYDYKAEAAAKIRKENPVVVAEKIQRI [C33A]
